Earlier results in publication PMC8322311.
Where two headings read alike, the source gives them in different places.

Experiments:
SHH (Homo sapiens) [1] = target: SHH (Homo sapiens) (UniProt Q15465)
SHH (Homo sapiens) [2] = target: SHH (Homo sapiens) (UniProt Q15465); remark: listed apart in the source

Row | Kd (SHH (Homo sapiens) [1]) | Kd (SHH (Homo sapiens) [2]) | Substance
1 | 0.032 µM | – | Glypican-3 (from UniProt P51654)
2 | – | 0.006 µM | HHIP (from UniProt Q96QV1)
